Experimental data from patent US20110192416A1.

Target: human hair (keratin-containing material) (human)
Test: Hair adherence test: His-tagged protein incubated with cut human hair, detected with anti-poly-histidine peroxidase conjugate and TMB; buffer background 0.05

Substance: comparable protein YaaD of B. subtilis with a His-tag (from UniProt P37527 1-294)
- absorption at 405 nm: 0.12 A405
